Data from publication PMC7115839, “An ATP-responsive metabolic cassette comprised of inositol tris/tetrakisphosphate kinase 1 (ITPK1) and inositol pentakisphosphate 2-kinase (IPK1) buffers diphosphosphoinositol phosphate levels” (Biochemical Journal, 2020).

Substrate: Nc1ncnc2c1ncn2[C@@H]1O[C@H](COP(=O)(O)OP(=O)(O)OP(=O)(O)O)[C@@H](O)[C@H]1O
Test: HPLC of inositol phosphates, Michaelis-Menten fit
Type: biochemical, Arabidopsis thaliana
Conditions: co-substrate Ins(3,4,5,6)P4 (preferred), 0.08-10 mM ATP, 1 mM MgCl2, HEPES pH 7.5, 25 C

B1: ITPK1 (AtITPK1) (Arabidopsis thaliana) (protein)
chain: MSDSIQERYLVGYALAAKKQHSFIQPSLIEHSRQRGIDLVKLDPTKSLLEQGKLDCIIHKLYDVYWKENLHEFREKCPGVPVIDLPEAIERLHNRVSMLEVITQLRFPVSDSERFGVPEQVVVMDSSVLSGGGALGELKFPVIAKPLDADGSAKSHKMFLIYDQEGMKILKAPIVLQEFVNHGGVIFKVYVVGDHVKCVKRRSLPDISEEKIGTSKGSLPFSQISNLTAQEDKNIEYGEDRSLEKVEMPPLSFLTDLAKAMRESMGLNLFNFDVIRDAKDANRYLIIDINYFPGYAKMPSYEPVLTEFFWDMVTKKNHV
notes: recombinant in E. coli Rosetta 2(DE3)pLysS, pOPINF, 3C-cleavable His tag (printed as C-terminal); Ni-NTA and Superdex 75
- Km: 770 ± 190 µM
